For this test, the target named is protein receptor on Chang C cells (human). As to the kind of experiment: 125I-labeled virions on Chang C cells pretreated with 10 µg/ml trypsin, subtilisin, proteinase K or bromelain.

Consider “Wild-type Ad37 (adenovirus type 37) particles”, for which the percent inhibition of specific binding after protease pretreatment of the cells was determined as 50%.

The record behind these values is patent US20020193327A1.
